In PMC12329521 one finds stoichiometry N data, which are given here for two substances.

Where two headings read alike, the source gives them in different places.

Holding throughout (assay): SEC
In general terms: In gel filtration, larger molecules generally elute earlier.

Assay [1] has as its target PLP-bound Rv2531c (Mycobacterium tuberculosis).
The target of assay [2] is Rv2531c (apo) (Mycobacterium tuberculosis).
The target is the same in assay [3]. This is another data set of the same source.

In general, stoichiometry N refers to the number of molecules, sites or subunits per partner or assembly. PLP-bound Rv2531c (enzyme) came in with a stoichiometry N in assay [1] of 2.
Turning to Rv2531c (apo) (enzyme), the stoichiometry N in assay [2] and in assay [3] was 4 each time.
